Test results reported in patent publication US20070292411A1 (Human Genome Sciences, published 2007).

B1: monoclonal antibody 7.1.3 (antibody, V domains shown)
VH: QVQLVQSGAEVKKPGASVKVSCKASGYTFTNYDINWVRQAPGQGLEWMGISAYTGNTNYAQKLQGRVTMTTDTSTSTAYMELRSLRSDDTAVYYCVRDYHDSNGYYYFDYWGQGTLVTVS
VL: DIQMIQSPLSLPVIPGEPASMSCRSSRSLLHSNGNNYLEWYLQKPGQSPQLLIYLGSNRASGVPDRFSGSGSGTDFTLKISRVEAEDVGIYYCMQGLQLPWTFGGTKVIKR
B2: TR4-Fc fusion protein (Fc fusion)
chain: ATIKLHDQSIGTQQWEHSPLGELCPPGSHRSERPGACNRCTEGVGYTNASNNLFACLPCTACKSDEEERSPCTTTRNTACQCKPGTFRNDNSAEMCRKCSTGCPRGMVKVKDCTPWSDIECVHKESGNGHNI
notes: not shown: Fc region

What was measured:
[1] = molecular target: B2; assay: competition ELISA, inhibition of biotinylated TRAIL binding to captured TR4-Fc; assay 1
Protocol: (§1) Goat anti-human Fc was diluted to 0.1 micrograms/ml in coating buffer. The Immulon 4 microplate was coated with 100 microliters per well of the Goat anti-human Fc solution and incubated overnight at 4° C. The coating solution was decanted from the plate, and blocking solution was dispensed at 200 microliters per well. The plate was incubated at room temperature for 1 hour. After the 1 hour incubation period, the blocking solution was decanted from the plate and 1 microgram/mL of TR4-Fc was dispensed at 100 microliters/well and incubated for 2 hours at room temperature. After the incubation, the plate was washed five times manually using a Wheaton manifold.
(§2) Hybridoma supernatants were (previously) prepared in a low binding dilution plate using diluent. The supernatants were prepared in duplicate and were diluted from the stock concentration with 2.5 fold dilutions for the 7 subsequent wells. If a purified form of the antibody was available, the starting concentration was 5 micrograms/mL. The positive control (TR4-Fc) was diluted from 5 micrograms/mL. 100 microliters was transferred into the ELISA plate and pre-incubated for 30 minutes at room temperature. […]
(§3) After the one-hour incubation, the plate was decanted and washed with PBST five times and blotted. […] The plate was immediately read at 450 nm using the spectrometer from Molecular Devices.

[2] = molecular target: B2; assay: competition ELISA, inhibition of biotinylated TRAIL binding to captured TR4-Fc; assay 2
Protocol: as §1, §2, §3

[3] = molecular target: T1, Biotinylated TRAIL (Homo sapiens (Human), UniProt P50591 114-281, limits assumed, biotinylated (sites not given)); assay: competition ELISA, soluble TR4 (TR4-Fc positive control) competing with captured TR4-Fc for biotinylated TRAIL; assay 2
T1 sequence (P50591 114-281 limits assumed): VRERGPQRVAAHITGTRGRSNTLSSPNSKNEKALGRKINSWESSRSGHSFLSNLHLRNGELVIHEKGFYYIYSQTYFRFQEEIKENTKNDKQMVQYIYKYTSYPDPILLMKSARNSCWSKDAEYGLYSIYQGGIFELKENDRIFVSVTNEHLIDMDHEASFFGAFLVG
Protocol: as §1, §2, §3

[4] = molecular target: T1, Biotinylated TRAIL; assay: competition ELISA, soluble TR4 (TR4-Fc positive control) competing with captured TR4-Fc for biotinylated TRAIL; assay 1
Protocol: as §1, §2, §3

IC50 [1] | IC50 [2] | IC50 [3] | IC50 [4] | Binder
0.152 µg/mL | 0.068 µg/mL |  |  | B1
 |  | 0.284 µg/mL | 0.491 µg/mL | B2
